Test results taken from patent US20240342298A1 (IMMUNWORK, published 2024).

How the values were obtained:
[1] = molecular target: T1, human CD38 (human, UniProt P28907 1-300); assay: flow cytometry on live U266-CD38+ cells, PE anti-human IgG-Fc detection
T1 construct: whole, on cells; also called full-length human CD38

[2] = molecular target: T1, human CD38; assay: flow cytometry on live H929 cells, PE anti-human IgG-Fc detection

B1: daratumumab (antibody, V domains shown)
VH: EVQLLESGGGLVQPGGSLRLSCAVSGFTFNSFAMSWVRQAPGKGLEWVSAISGSGGGTYYADSVKGRFTISRDNSKNTLYLQMNSLRAEDTAVYFCAKDKILWFGEPVFDYWGQGTLVTVSS
VL: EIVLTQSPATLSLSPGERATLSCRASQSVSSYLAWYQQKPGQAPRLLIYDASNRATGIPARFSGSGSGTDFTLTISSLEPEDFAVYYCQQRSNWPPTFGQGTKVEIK
Q: For B1, which EC50 [1] is on record?
A: Its EC50 is 0.13 nM.

Q: What about the EC50 [2] of the same binder?
A: The EC50 was 1.02 nM.
